Test results from IntAct's records for PubMed 17255092.

B1: SWI/SNF complex subunit SMARCC1 (Mus musculus), P97496 (parent)
chain: MAATAGGGPGAAAGAVGAGGAAAASGLAVYRRKDGGPASKFWESPDTVSQLDSVRVWLGKHYKKYVHADAPTNKTLAGLVVQLLQFQEDAFGKHVTNPAFTKLPAKCFMDFKAGGTLCHILGAAYKYKNEQGWRRFDLQNPSRMDRNVEMFMNIEKTLVQNNCLTRPNIYLIPDIDLKLANKLKDIIKRHQGTFTDEKSKASHHIYPYPSSQEDEEWLRPVMRRDKQVLVHWGFYPDSYDTWVHSNDVDAEIEDAPIPEKPWKVHVKWILDTDVFNEWMNEEDYEVDENRKPVSFRQRISTKNEEPVRSPERRDRKASANSRKRKPSPSPPPPTATESRKKSGKKGQASLYGKRRSQKEEDEQEDLTKDMEDPTPVPNIEEVVLPKNVNPKKDSENTPVKGGTVADLDEQDEEAVTTGGKEDEDPSKGDPSRSVDPGEDNVTEQTNHIIIPSYASWFDYNCIHVIERRALPEFFNGKNKSKTPEIYLAYRNFMIDTYRLNPQEYLTSTACRRNLTGDVCAVMRVHAFLEQWGLVNYQVDPESRPMAMGPPPTPHFNVLADTPSGLVPLHLRSPQVPAAQQMLNFPEKNKEKPIDLQNFGLRTDIYSKKTLAKSKGASAGREWTEQETLLLLEALEMYKDDWNKVSEHVGSRTQDECILHFLRLPIEDPYLENSDASLGPLAYQPVPFSQSGNPVMSTVAFLASVVDPRVASAAAKAALEEFSRVREEVPLELVEAHVKKVQEAARASGKVDPTYGLESSCIAGTGPDEPEKLEGSEEEKMETDPDGQQPEKAENKVENESDEGDKIQDRENEKNTEKEQDSDVSEDVKPEEKENEENKELTDTCKERESDAGKKKVEHEISEGNVATAAAAALASAATKAKHLAAVEERKIKSLVALLVETQMKKLEIKLRHFEELETIMDREKEALEQQRQQLLTERQNFHMEQLKYAELRARQQMEQQQQHGQTPQQAHQHTGGPGMAPLGATGHPGMMPHQQPPPYPLMHHQMPPPHPPQPGQIPGPGSMMPGQPMPGRMIPAVAANIHPTGSGPTPPGMPPMPGNILGPRVPLTAPNGMYPPPPQQQQPPPPADGVPPPPAPGPPASATP

Variants of: B1
Details: with snf5_mouse Smarcb1, Q9Z0H3
snf5_mouse Smarcb1, Q9Z0H3, sequence (Q9Z0H3 whole entry): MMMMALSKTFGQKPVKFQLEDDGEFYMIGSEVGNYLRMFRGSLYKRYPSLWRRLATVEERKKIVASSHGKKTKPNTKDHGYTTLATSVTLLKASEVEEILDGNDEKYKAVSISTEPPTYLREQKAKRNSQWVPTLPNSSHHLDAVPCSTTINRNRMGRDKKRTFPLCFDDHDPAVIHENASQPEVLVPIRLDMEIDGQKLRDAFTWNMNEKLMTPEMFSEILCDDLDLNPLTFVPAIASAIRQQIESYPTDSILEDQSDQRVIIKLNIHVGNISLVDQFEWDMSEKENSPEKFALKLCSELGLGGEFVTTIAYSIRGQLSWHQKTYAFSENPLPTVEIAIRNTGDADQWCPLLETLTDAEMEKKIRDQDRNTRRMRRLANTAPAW

| Variant | effect of a mutation on the interaction |
| --- | --- |
| N535A | decreasing interaction |
| L533A;N535A | disrupting interaction |
| L533A | decreasing interaction |

Variants of: B1
Details: with snf5_mouse Smarcb1, Q9Z0H3
Remark: another data set of the same source

| Variant | effect of a mutation on the interaction |
| --- | --- |
| L533A;N535A | disrupting interaction strength |
